Experimental data: patent US20240293570A1 (priority 2021, published 2024)
Like-named read-outs stand apart in the source and are kept apart here.

Legend:
[1] = format: physicochemical; settings: ADC with Her2 antibody, RP-HPLC-MS
Outline: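 ADC at 1 mg/ml reduced with 50 mmol/L DTT in Tris pH 8.0 for 30 min at 37 °C, then light and heavy chains separated by RP-HPLC on a PLRP-S column at 70 °C. Deconvoluted masses assigned drug load per peak; weighted average DAR calculated from UV peak area percentages.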

[2] = Polymer (high molecular component) content of antibody-drug conjugates by SE-HPLC; format: physicochemical; settings: ADC with Her2 antibody
Outline: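 SE-HPLC on 7.8×300 mm SEC column with 50 mM phosphate, 300 mM NaCl (pH 6.8) mobile phase at 0.5 mL/min; high-molecular-weight content determined by area normalization.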

[3] = Naked antibody content of antibody-drug conjugates by hydrophobic interaction chromatography (HIC); format: physicochemical; settings: ADC with Her2 antibody
gastric cancer NCI-N87 = experiment: In vivo anti-tumor effect, gastric cancer NCI-N87 tumor model; parameters: species or system mouse; settings: NCI-N87 subcutaneous model, FIG. 10, FIG. 11
Experimental: (§1) Tumor cells (ovarian cancer SKOV-3, gastric cancer NCI-N87, and breast cancer JIMT-1) were cultured in a medium and maintained in a 37° C. saturated humidity incubator containing 5% CO2, respectively.
(§2) Tumor cells in a logarithmic growth phase were collected and re-suspended in a basic medium, and the concentration of cells was adjusted to 4×10^7/mL. Under sterile conditions, 0.1 mL of cell suspension was inoculated subcutaneously into the right armpit of a mouse at a concentration of 4×10^6 Cells/0.1 mL/mouse.
(§3) When the tumor volume reached around 200 mm^3, animals were randomly grouped according to the tumor volume, where the difference in tumor volume between the groups was less than 10% of the mean. The grouping day was recorded as Day 0, and administration started according to the body weight of the animals. In the administration period, if the body weight of individual animals decreased by more than 15% compared to that on Day 0 (BWL≥15%), the administration was stopped until the body weight of the animals recovered (BWL<15%), and then the administration recovered.
(§4) During the experiment, the body weight of the animals and the tumor volume were measured 2 times a week, and clinical symptoms of the animals were observed and recorded every day.

breast cancer JIMT-1 = experiment: In vivo anti-tumor effect, breast cancer JIMT-1 tumor model; parameters: species or system mouse; settings: JIMT-1 subcutaneous model, FIG. 10
Experimental: as §1, §2, §3, §4

[4] = Stability (placement) test of ADCs at 40° C. in dark for 14 days, DAR and polymer content; format: physicochemical
Outline: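 ADCs stored at 40° C in dark, sampled on days 0, 7 and 14. Polymer content by SE-HPLC (50 mM phosphate, 300 mM NaCl, pH 6.8), area normalization. DAR by RP-HPLC-MS after reduction (1 mg/ml in 50 mmol/L Tris pH 8.0, 50 mmol/L DTT, 37° C, 30 min): deconvoluted chain masses assign drug load, weighted average from UV peak areas.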

Compound	DAR [1]	Polymer content (%) [2] [%]	Naked antibody content (%) [3] [%]	in vivo anti-tumor effect on gastric cancer (gastric cancer NCI-N87)	in vivo anti-tumor effect on breast cancer (breast cancer JIMT-1)	DAR ([4]; Day 0, 40° C. in dark)	Polymer content (%) ([4]; Day 0, 40° C. in dark)	DAR ([4]; Day 7, 40° C. in dark)	Polymer content (%) ([4]; Day 7, 40° C. in dark)	DAR ([4]; Day 14, 40° C. in dark)	Polymer content (%) ([4]; Day 14, 40° C. in dark)
C=C1C[C@@H]2CC[C@@]34C[C@H]5OC6C(O[C@H]7CC[C@H](CC(=O)C[C@@H]8[C@@H](OC)[C@@H](C[C@H](O)CNC(=O)CNC(=O)[C@H](Cc9ccccc9)NC(=O)CNC(=O)CNC(=O)CCCCCN9C(=O)C=CC9=O)O[C@H]8C[C@H]8O[C@@H](CC[C@@H]1O2)C[C@@H](C)C8=C)O[C@@H]7[C@@H]6O3)[C@H]5O4 [Comparative Example 4, reference compound]	3.01	10.73	8.01	poor anti-tumor effects	poor anti-tumor effects	–	–	–	–	–	–
C=C1C[C@@H]2CC[C@@]34C[C@H]5OC6C(O[C@H]7CC[C@H](CC(=O)C[C@@H]8[C@@H](OC)[C@@H](C[C@H](O)CNC(=O)CNC(=O)[C@H](Cc9ccccc9)NC(=O)CNC(=O)CN9CCOCCOCCN(C(=O)CCCCCN%10C(=O)C=CC%10=O)CCOCCOCC9)O[C@H]8C[C@H]8O[C@@H](CC[C@@H]1O2)C[C@@H](C)C8=C)O[C@@H]7[C@@H]6O3)[C@H]5O4 [Example 40]	3.78	1.29	4.27	significantly better	–	3.78	1.29	3.75	1.31	3.74	1.41
